Experimental findings from patent US5908790A, “Methods for removing heavy metals from aqueous solutions and for analysis” (Behring Diagnostics GmbH, priority 1990, dated 1999) are described below.

Assay type in all cases: binding
For one assay, the system named is DTPA-Y. Kind of assay: Quantitative inhibition ELISA of mAB, competitor DTPA-Y. The conditions noted are these: solid phase Y benzyl-DTPA-HSA conjugate. Here is the method:
(§1) The ELISA comprised a solid phase which was loaded with a solution containing human serum albumin (HSA)-benzyl-DTPA. The supernatant which was to be tested and contained the mAB was preincubated with free complexone or the metal ion complex thereof, and its binding to the specific solid phase was measured. For this purpose, an enzyme amplification system which is coupled to an anti-mouse-immunoglobulin antibody was used. The details of this method are described in Examples 2 and 3.
(§2) The complexones DTPA and EDTA in noncomplexed and in complexed form (Example 4) were used as competitors. Additionally, the structurally related compounds transaconitic acid and 1,2-diaminoethane were used as inhibitors (see Tab. I). The excess amounts of competitor presented in Tab. […] These characteristics make it possible to use the mAB, e.g. coupled on filters or other solid supports, for removing both noncomplexed EDTA or DTPA and EDTA-metal ion or DTPA-metal ion complexes from liquids. Precipitation reactions of mAB-/EDTA-metal ion complexes are likewise suitable for removing the toxic metal ions.
(§3) Divisible 96-well polystyrene microtiter plates (U-shape) type B. supplied by Nunc, No. 4-60445 were employed as support material. The assay was carried out according to the following protocol. […]
(§4) (15) The extinctions are measured at 492 nm in the TITERTEK^R MULTISCAN. […]
A general note: ELISA stands for enzyme-linked immunosorbent assay.

Assay [1] in a line: Quantitative inhibition ELISA of mAB, competitor DTPA. The conditions noted are these: competitor DTPA (noncomplexed); solid phase Y benzyl-DTPA-HSA conjugate. Here is the method: as §1, §2, §3, §4
Another assay deals with DTPA-Mn. Kind of assay: Quantitative inhibition ELISA of mAB, competitor DTPA-Mn. The conditions noted are these: solid phase Y benzyl-DTPA-HSA conjugate. Here is the method: as §1, §2, §3, §4
In a further assay the test system is DTPA-Cd. Kind of assay: Quantitative inhibition ELISA of mAB, competitor DTPA-Cd. The note with it: solid phase Y benzyl-DTPA-HSA conjugate. The protocol: as §1, §2, §3, §4
A further assay concerns DTPA-Zn. The experiment in a line: Quantitative inhibition ELISA of mAB, competitor DTPA-Zn. The note with it: solid phase Y benzyl-DTPA-HSA conjugate. Here is the method: as §1, §2, §3, §4
A further assay deals with DTPA-Cu. The experiment in a line: Quantitative inhibition ELISA of mAB, competitor DTPA-Cu. The note with it: solid phase Y benzyl-DTPA-HSA conjugate. Here is the method: as §1, §2, §3, §4
The next assay concerns DTPA-Pb. Kind of assay: Quantitative inhibition ELISA of mAB, competitor DTPA-Pb. The note with it: solid phase Y benzyl-DTPA-HSA conjugate. Here is the method:
as §1, §2, §3, §4

A short description of assay [2]: Quantitative inhibition ELISA of mAB, competitor 1,2-diaminoethane. The conditions noted are these: no inhibition up to the stated excess. Here is the method: as §1, §2, §3, §4
Assay [3] in a line: Quantitative inhibition ELISA of mAB, competitor transaconitic acid. The conditions noted are these: competitor trans-aconitic acid; no inhibition up to the stated excess. The protocol: as §1, §2, §3, §4
For another assay, the system named is EDTA-Y. Kind of assay: Quantitative inhibition ELISA of mAB, competitor EDTA-Y. The conditions noted are these: solid phase Y benzyl-DTPA-HSA conjugate. The protocol:
as §1, §2, §3, §4

Assay [4] is described as follows: Quantitative inhibition ELISA of mAB, competitor EDTA. Here is the method: as §1, §2, §3, §4
The subject of a further assay is EDTA-Mn. Kind of assay: Quantitative inhibition ELISA of mAB, competitor EDTA-Mn. The conditions noted are these: solid phase Y benzyl-DTPA-HSA conjugate. The protocol:
as §1, §2, §3, §4

A further assay deals with EDTA-Cd. The experiment in a line: Quantitative inhibition ELISA of mAB, competitor EDTA-Cd. The conditions noted are these: solid phase Y benzyl-DTPA-HSA conjugate. Here is the method: as §1, §2, §3, §4
The next assay deals with EDTA-Zn. The experiment in a line: Quantitative inhibition ELISA of mAB, competitor EDTA-Zn. The conditions noted are these: solid phase Y benzyl-DTPA-HSA conjugate. The protocol: as §1, §2, §3, §4
The test system of a further assay is EDTA-Cu. The experiment in a line: Quantitative inhibition ELISA of mAB, competitor EDTA-Cu. The note with it: solid phase Y benzyl-DTPA-HSA conjugate. Here is the method:
as §1, §2, §3, §4

For a further assay, the system named is EDTA-Pb. Kind of assay: Quantitative inhibition ELISA of mAB, competitor EDTA-Pb. The conditions noted are these: solid phase Y benzyl-DTPA-HSA conjugate. Here is the method:
as §1, §2, §3, §4

A value given as a limit tells only on which side of the number the result lay.

B1: mAB 2050/535: particularly suitable anti-EDTA/DTPA monoclonal antibody; VL and VH sequences in SEQ ID NO:1-4 (antibody, V domains shown)
VH: LQQSGAELVKPGASVKLSCTSGLNIKDTYINWVKQRPEQGLEWIGRIGPANGNTKYDPKFQGKATLTADTSSNTAYLQLSSLTSEDTAVYYCSRRWFFLYWGQGTTVT
VL: QLTQESALTTSPGETVTLTCRSSTGAVTTSNYATWVQEKPDHLFTGLIGGTKNRAPGVPARFSGSLIGDKAALTITGAQTEDEAIYFCALWYSNHWVFGGGTKLKI
Regarding B1, the “Molar excess of competitor, which leads to 50% inhibition of binding to the solid phase antigen” value is 10^4 in the assay with DTPA-Y; 10^2 in assay [1]; 10^2 in the assay on DTPA-Mn; 10^2 in the assay on DTPA-Cd; 10^3 in the assay with DTPA-Zn; 10^3 in the assay on DTPA-Cu. The “Molar excess of competitor, which leads to 50% inhibition of binding to the solid phase antigen” value in the assay with DTPA-Pb was 10^3; in assay [2] it was > 10^5; in [3] it was > 10^5; with EDTA-Y it was 10^2; in assay [4] (competitor EDTA (noncomplexed), solid phase Y benzyl-DTPA-HSA conjugate) it was 10^2; with EDTA-Mn it was 10^2. The “Molar excess of competitor, which leads to 50% inhibition of binding to the solid phase antigen” value in the assay on EDTA-Cd, in the assay with EDTA-Zn, in the assay on EDTA-Cu and in the assay on EDTA-Pb was 10^2 in each case. Also, in assay [4] (statement in words, EDTA and its metal complexes), the “interaction with EDTA and the complexes thereof” value is listed as “particularly strong”.
